From article PMC3648886 come the findings set out here.

Holding throughout (assay): FRET or BRET
(BRET reads energy transfer from a luciferase to a nearby fluorophore.)

In assay [1] the target is Monocysteine-reactive type A CCK receptor construct A204C, derivatized with Alexa^546 at position 204 (UniProt P30551).
Assay [2] concerns the target Monocysteine-reactive type A CCK receptor construct N102C, derivatized with Alexa^546 at position 102 (UniProt P30551).
The target of assay [3] is Monocysteine-reactive type A CCK receptor construct T341C, derivatized with Alexa^546 at position 341 (UniProt P30551).
The target in assay [4] is Monocysteine-reactive type A CCK receptor construct C94, derivatized with Alexa^546 at position 94 (UniProt P30551).

Take Aladan^29-CCK (peptide): the efficiency of energy transfer is 54% in assay [1], 66% in assay [2], 67% in assay [3] and 55% in assay [4].

Consider Aladan^24-CCK (peptide), for which the efficiency of energy transfer in assay [1] was determined as 53%; in assay [2], 64%; in assay [3] it was 64%; in assay [4], 56%.

For the substance Aladan^33-CCK (peptide), the efficiency of energy transfer in assay [1] turned out to be 53%; in assay [2] it was 70%; in assay [3] it was 66%; in assay [4] it was 58%.
